Assay results from patent publication US20090075889A1 (YEDA RESEARCH AND DEVELOPMENT, published 2009).

B3: IREN 10B (other)
chain: MSGSQNNDKRQFLLERLLDAVKQCQIRFGGRKEIASDSDSRVTCLCAQFEAVLQHGLKRSRGLALTAAAIKQAAGFASKTETEPVFWYYVKEVLNKHELQRFYSLRHIASDVGRGRAWLRCALNEHSLERYLHMLLADRCRLSTFYEDWSFVMDEERSSMLPTMAAGLNSILFAINIDNKDLNGQSKFAPTVSDLLKESTQNVTSLLKESTQGVSSLFREITASSAVSILIKPEQETDPLPVVSRNVSADAKCKKERKKKKKVTNIISFDDEEDEQNSGDVFKKTPGAGESSEDNSDRSSVNIMSAFESPFGPNSNGSQSSNSWKIDSLSLNGEFGYQKLDVKSIDDEDVDENEDDVYGNSSGRKHRGHSESPEKPLEGNTCLSQMHSWAPLKVLHNDSDILFPVSGVGSYSPADAPLGSLENGTGPEDHVLPDPGLRYSVEASSPGHGSPLSSLLPSASVPESMTISELRQATVAMMNRKDELEEENRSLRNLLDGEMEHSAALRQEVDTLKRKVAEQEERQGMKVQALARENEVLKVQLKKYVGAVQMLKREGQTAEVPNLWSVDGEVTVAEQKPGEIAEELASSYERKLIEVAEMHGELIEFNERLHRALVAKEALVSQMRQELIDLRGPVPGDLSQTSEDQSLSDFEISNRALINVWIPSVFLRGKAANAFHVYQVYIRIKDDEWNIYRRYTEFRSLHHKLQNKYPQVRAYNFPPKKAIGNKDAKFVEERRKQLQNYLRSVMNKVIQMVPEFAASPKKETLIQLMPFFVDITPPGEPVNSRPKAASRFPKLSRGQPRETRNVEPQSGDL
notes: Splice isoform of IREN; Used as both bait and prey in yeast two-hybrid; also called clone 10B
B4: human TRAF2 (other, UniProt Q12933 1-501, looked up)
chain: MAAASVTPPGSLELLQPGFSKTLLGTKLEAKYLCSACRNVLRRPFQAQCGHRYCSFCLASILSSGPQNCAACVHEGIYEEGISILESSSAFPDNAARREVESLPAVCPSDGCTWKGTLKEYESCHEGRCPLMLTECPACKGLVRLGEKERHLEHECPERSLSCRHCRAPCCGADVKAHHEVCPKFPLTCDGCGKKKIPREKFQDHVKTCGKCRVPCRFHAIGCLETVEGEKQQEHEVQWLREHLAMLLSSVLEAKPLLGDQSHAGSELLQRCESLEKKTATFENIVCVLNREVERVAMTAEACSRQHRLDQDKIEALSSKVQQLERSIGLKDLAMADLEQKVLEMEASTYDGVFIWKISDFARKRQEAVAGRIPAIFSPAFYTSRYGYKMCLRIYLNGDGTGRGTHLSLFFVVMKGPNDALLRWPFNQKVTLMLLDQNNREHVIDAFRPDVTSSSFQRPVNDMNIASGCPLFCPVSKMEAKNSYVRDDAIFIKAIVDLTGL
notes: range 1-501; the fusion partner is not included in the chain; also called hTRAF2; full length TRAF2
B6: IREN (other)
chain: MSGSQNNDKRQFLLERLLDAVKQCQIRFGGRKEIASDSDSRVTCLCAQFEAVLQHGLKRSRGLALTAAAIKQAAGFASKTETEPVFWYYVKEVLNKHELQRFYSLRHIASDVGRGRAWLRCALNEHSLERYLHMLLADRCRLSTFYEDWSFVMDEERSSMLPTMAAGLNSILFAINIDNKDLNGQSKFAPTVSDLLKESTQNVTSLLKESTQGVSSLFREITASSAVSILIKPEQETDPLPVVSRNVSADAKCKKERKKKKKVTNIISFDDEEDEQNSGDVFKKTPGAGESSEDNSDRSSVNIMSAFESPFGPNSNGSQSSNSWKIDSLSLNGEFGYQKLDVKSIDDEDVDENEDDVYGNSSGRKHRGHSESPEKPLEGNTCLSQMHSWAPLKVLHNDSDILFPVSGVGSYSPADAPLGSLENGTGPEDHVLPDPGLRYSVEASSPGHGSPLSSLLPSASVPESMTISELRQATVAMMNRKDELEEENRSLRNLLDGEMEHSAALRQEVDTLKRKVAEQEERQGMKVQALASYLCYFVRRF
notes: Tested in yeast two-hybrid as a hybrid protein; the fusion partner is not included in the chain; also called IκB REgulator; IREN protein

Experiments:
[1] = target: B4; experiment: yeast two-hybrid, bait TRAF2, prey IREN198-388
Method: (§1) Positive clones picked up in the two hybrid screen were subjected to lacZ color development test in SFY526 yeast cells, following Clontech Laboratories' manual (for details see above mentioned publications and patent applications). In brief, transformants were allowed to grow at 30° C. for 2-4 days until reaching about 2 mm in diameter, then were transferred onto Whatman filters. The filters went through a freeze/thaw treatment in order to permeabilize the cells, then soaked in a buffer (16.1 mg/ml Na₂HP0₄ 7H₂0; 5.5 mg/ml NaH₂P0₄′H₂0; 0.75 mg/ml KCl; 0.75 mg/ml MgS0₄′7H₂O, pH=7) containing 0.33 mg/ml X-gal and 0.35 mM β-mercaptoethanol. Colonies were monitored for development of blue color which is an indication for induction of β-galactosidase.
(§2) In order to narrow down the region on the TRAF2 molecule which interacts with IREN two additional constructs were made. One construct comprising the N-terminal part of the TRAF2 molecule, amino acids 1 to 224 designated RING₁₋₂₂₄ comprising the Ring finger and the zinc finger motifs. The second construct included only the C-terminal part of TRAF2, amino acids 225 to 501, covering the “TRAF-domain” as well as an additional 42 amino acids. These two constructs were used as baits in two hybrid tests.

[2] = target: B4; experiment: yeast two-hybrid, bait TRAF2, prey IREN198-541
Method: as §1, §2

[3] = target: the molecule itself; experiment: yeast two-hybrid, bait IREN 10B, prey IREN 10B
[4] = target: B6; experiment: yeast two-hybrid, bait TRAF2, prey IREN
Method: as §1, §2

[5] = target: B3; experiment: yeast two-hybrid, bait TRAF2, prey IREN 10B
[6] = target: B6; experiment: yeast two-hybrid, bait TRAF2225-501, prey IREN
Method: as §1, §2

[7] = target: the molecule itself; experiment: yeast two-hybrid

B1: IREN198-388 (other)
chain: ESTQNVTSLLKESTQGVSSLFREITASSAVSILIKPEQETDPLPVVSRNVSADAKCKKERKKKKKVTNIISFDDEEDEQNSGDVFKKTPGAGESSEDNSDRSSVNIMSAFESPFGPNSNGSQSSNSWKIDSLSLNGEFGYQKLDVKSIDDEDVDENEDDVYGNSSGRKHRGHSESPEKPLEGNTCLSQMHS
notes: Two-hybrid prey construct
binding result [1]: binds

B2: IREN198-541 (other)
chain: ESTQNVTSLLKESTQGVSSLFREITASSAVSILIKPEQETDPLPVVSRNVSADAKCKKERKKKKKVTNIISFDDEEDEQNSGDVFKKTPGAGESSEDNSDRSSVNIMSAFESPFGPNSNGSQSSNSWKIDSLSLNGEFGYQKLDVKSIDDEDVDENEDDVYGNSSGRKHRGHSESPEKPLEGNTCLSQMHSWAPLKVLHNDSDILFPVSGVGSYSPADAPLGSLENGTGPEDHVLPDPGLRYSVEASSPGHGSPLSSLLPSASVPESMTISELRQATVAMMNRKDELEEENRSLRNLLDGEMEHSAALRQEVDTLKRKVAEQEERQGMKVQALASYLCYFVRRF
notes: Two-hybrid prey construct; also called N-terminal deletion mutant of IREN; IRENΔN
binding result [2]: binds

B3
binding result [3]: binds

B4
binding result [4]: binds
binding result [5]: binds

B5: TRAF2225-501 (other, human, UniProt Q12933 225-501, looked up)
chain: ETVEGEKQQEHEVQWLREHLAMLLSSVLEAKPLLGDQSHAGSELLQRCESLEKKTATFENIVCVLNREVERVAMTAEACSRQHRLDQDKIEALSSKVQQLERSIGLKDLAMADLEQKVLEMEASTYDGVFIWKISDFARKRQEAVAGRIPAIFSPAFYTSRYGYKMCLRIYLNGDGTGRGTHLSLFFVVMKGPNDALLRWPFNQKVTLMLLDQNNREHVIDAFRPDVTSSSFQRPVNDMNIASGCPLFCPVSKMEAKNSYVRDDAIFIKAIVDLTGL
notes: range 225-501; Two-hybrid bait construct; also called C-terminal part of TRAF2, amino acids 225 to 501; C-terminal construct comprising the TRAF domain
binding result [6]: binds

B6
binding result [7]: no binding
